The Immune Epitope Database (IEDB)
One block for each sequence: values may come before it.

Assays:
[1] = molecular target: HLA-B*57:01; assay: IEDB peptide-MHC binding, purified MHC/direct/fluorescence; filed as Kd, often an IC50 or EC50 that approximates it; ≥ and ≤ were set here for values at or beyond the usual limits of such assays; conditions: source organism: Brucella melitensis
[2] = molecular target: HLA-B*15:17; assay: as above; conditions: source organism: Brucella melitensis
[3] = molecular target: HLA-B*58:01; assay: as above; conditions: source organism: Brucella melitensis
[4] = molecular target: HLA-B*46:01; assay: IEDB peptide-MHC binding, purified MHC/competitive/fluorescence; filed as Kd, often an IC50 or EC50 that approximates it; ≥ and ≤ were set here for values at or beyond the usual limits of such assays; conditions: source organism: Brucella melitensis bv. 1 str. 16M
[5] = molecular target: HLA-B*15:03; assay: IEDB peptide-MHC binding, purified MHC/competitive/radioactivity; filed as Kd, often an IC50 or EC50 that approximates it; ≥ and ≤ were set here for values at or beyond the usual limits of such assays; conditions: source organism: Vaccinia virus WR
[6] = molecular target: HLA-B*08:01; assay: as above; conditions: source organism: Vaccinia virus WR
[7] = molecular target: HLA-A*30:01; assay: as above; conditions: source organism: Vaccinia virus WR
[8] = molecular target: HLA-B*15:01; assay: as above; conditions: source organism: Vaccinia virus WR
[9] = molecular target: HLA-A*32:01; assay: as above; conditions: source organism: Vaccinia virus WR
[10] = molecular target: HLA-A*11:01; assay: IEDB peptide-MHC binding, purified MHC/competitive/fluorescence; ≥ and ≤ were set here for values at or beyond the usual limits of such assays
[11] = molecular target: HLA-A*02:01; assay: IEDB peptide-MHC binding, purified MHC/competitive/radioactivity; filed as Kd, often an IC50 or EC50 that approximates it; ≥ and ≤ were set here for values at or beyond the usual limits of such assays
[12] = molecular target: HLA-A*68:02; assay: as above; conditions: source organism: Homo sapiens
[13] = molecular target: HLA-A*02:03; assay: as above; conditions: source organism: Homo sapiens
[14] = molecular target: HLA-A*02:06; assay: as above; conditions: source organism: Homo sapiens
[15] = molecular target: HLA-A*02:02; assay: as above; conditions: source organism: Homo sapiens
[16] = molecular target: HLA-A*68:01; assay: as above; conditions: source organism: Vaccinia virus WR
[17] = molecular target: HLA-A*31:01; assay: as above; conditions: source organism: Vaccinia virus WR
[18] = molecular target: HLA-A*11:01; assay: as above; conditions: source organism: Vaccinia virus WR
[19] = molecular target: HLA-A*33:01; assay: as above; conditions: source organism: Vaccinia virus WR
[20] = molecular target: HLA-A*03:01; assay: as above; conditions: source organism: Vaccinia virus WR

Sequence: IAASNLEQF
Kd [1]: 202 nM
Kd [2]: 22.6 nM
Kd [3]: 50 nM
Kd [4]: 47.9 nM

Sequence: TMVNSLTYF
Kd [5]: 0.126 nM

Sequence: FSALPTNEF
Kd [5]: 0.13 nM

Sequence: ISAFPKNDF
Kd [5]: 663 nM

Sequence: LSTTRFQSM
Kd [6]: 3970 nM
Kd [5]: 2500 nM
Kd [7]: 1080 nM
Kd [8]: 5820 nM
Kd [9]: 9770 nM

Sequence: LGGILPWTK
IC50 ([10]; source organism: Vaccinia virus WR): 536 nM

Sequence: YVLPRRGPRL
Kd ([11]; source organism: Hepatitis C virus subtype 3a): 3570 nM

Kd ([11]; source organism: Homo sapiens): 1.1 nM
Sequence: SLFEGIDFYT

Sequence: RLVRPFLVV
Kd [5]: 15.9 nM

Sequence: SIPNFNQYEA
Kd ([11]; source organism: Lassa virus Josiah): ≥ 25000 nM

Sequence: EIFSAWISH
IC50 ([10]; source organism: Variola virus): 22600 nM

Sequence: FSNFSTSHI
Kd [6]: 3110 nM
Kd [5]: 510 nM
Kd [7]: 7500 nM
Kd [8]: 110 nM
Kd [9]: 18400 nM

Kd ([11]; source organism: Homo sapiens): ≥ 40200 nM
Kd [12]: 9730 nM
Kd [13]: ≥ 94300 nM
Kd [14]: ≥ 71200 nM
Kd [15]: 2840 nM
Sequence: ELEQTYHAKL

Kd ([11]; source organism: Homo sapiens): 808 nM
Kd [12]: 2970 nM
Kd [13]: 78.3 nM
Kd [14]: 13500 nM
Kd [15]: 14.4 nM
Sequence: LLHQSSDKFV

Sequence: FKAKWLTPF
Kd [5]: 0.0731 nM

Kd ([11]; source organism: Homo sapiens): 550 nM
Kd [13]: 34.2 nM
Kd [15]: 20.5 nM
Sequence: KLTKDFSAL

Kd ([11]; source organism: Homo sapiens): 29 nM
Sequence: SLADEAEVHL

Sequence: KAFNHASVK
Kd [6]: 751 nM
Kd [5]: 282 nM
Kd [16]: 17.6 nM
Kd [17]: 29.7 nM
Kd [7]: 34.7 nM
Kd [18]: 9.31 nM
Kd [8]: 462 nM
Kd [19]: ≥ 47700 nM
Kd [9]: 3640 nM
Kd [20]: 6.13 nM

Sequence: ISWMMKLGI
Kd [6]: 4840 nM
Kd [5]: 404 nM
Kd [7]: 6580 nM
Kd [8]: 546 nM
Kd [9]: 42.1 nM
